Data: patent publication US20110014669A1, “Production of 1,4 Butanediol in a Microorganism” (Microbia, Inc., priority 2009, published 2011)

B1: IlvECg: Enzyme candidate for BDO biosynthetic pathway step A4, SEQ ID NO. 28 (protein, listed as Corynebacterium glutamicum)
chain: MYLSGSRCTLKSMTSLEFTVTRTENPTSPDRLKEILAAPKFGKFFTDHMVTIDWNESEGWHNAQLVPYAPIPMDPATTVFHYGQAIFEGIKAYRHSDETIKTFRPDENAERMQRSAARMAMPQLPTEDFIKALELLVDADQDWVPEYGGEASLYLRPFMISTEIGLGVSPADAYKFLVIASPVGAYFTGGIKPVSVWLSEDYVRAAPGGTGDAKFAGNYAASLLAQSQAAEKGCDQVVWLDAIEHKYIEEMGGMNLGFIYRNGDQVKLVTPELSGSLLPGITRKSLLQVARDLGYEVEERKITTTEWEEDAKSGAMTEAFACGTAAVITPVGTVKSAHGTFEVNNNEVGEITMKLRETLTGIQQGNVEDQNGWLYPLVG
B2: BioACg: Enzyme candidate for BDO biosynthetic pathway step A4, SEQ ID NO. 29 (protein, listed as Corynebacterium glutamicum)
chain: MENPSLRELDHRNIWHPYAAPGVRNRLVTKTDGVFLTLEDGSTVIDAMSSWWSAIHGHGHPRLKAAAQKQIDTMSHVMFGGLTHEPAIKLTHKLLNLTGNSFDHVFYSDSGSVSVEVAIKMALQASKGQGHPERTKLLTWRSGYHGDTFTAMSVCDPENGMHSLWKGTLPEQIFAPAPPVRGSSPQAISEYLRSMELLIDETVSAIIIEPIVQGAGGMRFHDVALIEGVATLCKKHDRFLIVDEIATGFGRTGELFATLSNGLQPDIMCVGKALTGGFMSFAATLCTDKVAQLISTPNGGGALMHGPTFMANPLACAVSHASLEIIETGMWQKQVKRIEAELIAGLSPLQHLPGVADVRVLGAIGVIEMEQNVNVEEATQAALDHGVWIRPFGRLLYVMPPYITTSEQCAQICTALHAAVKGK
B3: BcaTLp: Enzyme candidate for BDO biosynthetic pathway step A4, SEQ ID NO. 34 (protein, listed as Lactobacillus plantarum)
chain: MADVQLDWNNLGFEYRNLPYRYRAYWKDGAWYKKELTGDATLHISEGSTALHYGQQDFEGLKAYRTKDGSVQLFRPDRNAARMQTSCERLLMPQVPTDMFVDAVKQVVKANQDYVPPYGTGATLYLRPLMIGVGGNIGVHPAQEYIFTVFAMPVGSYFKGGMTPTNFTTSEYDRAAHKGTGAYKVGGNYAASLFPGQEAHANGFSDCVYLDPVEHRKIEEVGSANFFGITKDGTFVTPKSPSILPAVTKYSLLYLAEHKFGMKTEQGDVYIDDLDRFAEAGACGTAAVISPIGGLEHQGKLHVFYSETEVGPVTKKLYDELTGIQFGDREAPEGWVQKVELD
B4: BATlY1: Enzyme candidate for BDO biosynthetic pathway step A4, SEQ ID NO. 31 (protein, listed as Yarrowia lipolytica)
chain: MLRNNLRSLSRAFSTSSMRLGAGMDASKLQITKTKSPKEKQAPKDLIFGHTFTDHMLTVEWTAKDGWAAPQITPYGPLELDPSAVVLHYAFECFEGLKAYKDESGNVRLFRVDKNMHRMNTSAERICLPEFDGAEAAKLIGQLAKLDSAWIPEGRGYSMYLRPSLIGTTAALGVGTPDKALFYVIASPVGPYYPTGFKAVKLEATDYAVRAWPGGVGNKKLGANYAPCIKPQQQAASRGYQQNLWLFGDEGNITEVGTMNAFFVFERNGKKELVTAPLDGTILEGVTRDSILELARERLPSADWIVSERYCTIKEVAEAAEKGELVEAFGAGTAAVVSPIKEIGWGEKTINIPLQPGKEAGKLTETVNEWIGDIQYGKDEYKGWSKVV
B5: PdcBc: Enzyme candidate for BDO biosynthetic pathway step A5, SEQ ID NO. 42 (protein, listed as Bacillus cereus)
chain: MKKQYTVSTYLLDRLHELGIEHIFGVPGDYNLAFLDDVVAHENLKWIGNCNELNAAYAADGYARIKGIAALITTFGVGELSAINGIAGSYAENVPVIKITGTPPTKVMENGAIVHHTLGDGKFDHFSNMYREITVAQTNVTPEHAAEEIDRVLRACWNEKRPVHINLPIDVYNKPINKPTEPIINKPILSNKEALNKMLLHAISKINSAKKPVILADFEVDRFHAKENLHQFVEKTGFPIATLSMGKGIFPEKHPQFIGIYTGDVSSPYLRKRIDESDCIISIGVKLTDTITGGFTQGFTKEQVIEIHPYTVKIIDKKYGPVVMQDVLQHLSDSIEHRNKDTLDVKPFILESSPFTEEFIPKAQMVTQKRFWQQMYHFLQENDVLIVEQGTPFFGSSAIPLPNNTAYVGQPLWGSIGYTLPALLGTQLANLSRRNILIIGDGSFQVTAQELSTILRQNLKPIIFLINNNGYTVERAIHGQNQLYNDIQMWDYNKLSMVFGAEEKSLTFKVENEAELAAVLTNITFNKNQLIFIEVIMSQSDQPELLAKLGKRSGQQNS
B6: PdcZm: Enzyme candidate for BDO biosynthetic pathway step A5, SEQ ID NO. 38 (protein, listed as Zymomonas mobilis)
chain: MSYTVGTYLAERLVQIGLKHHFAVAGDYNLVLLDNLLLNKNMEQVYCCNELNCGFSAEGYARAKGAAAAVVTYSVGALSAFDAIGGAYAENLPVILISGAPNNNDHAAGHVLHHALGKTDYHYQLEMAKNITAAAEAIYTPEEAPAKIDHVIKTALREKKPVYLEIACNIASMPCAAPGPASALFNDEASDEASLNAAVEETLKFIANRDKVAVLVGSKLRAAGAEEAAVKFADALGGAVATMAAAKSFFPEENPHYIGTSWGEVSYPGVEKTMKEADAVIALAPVFNDYSTTGWTDIPDPKKLVLAEPRSVVVNGIRFPSVHLKDYLTRLAQKVSKKTGALDFFKSLNAGELKKAAPADPSAPLVNAEIARQVEALLTPNTTVIAETGDSWFNAQRMKLPNGARVEYEMQWGHIGWSVPAAFGYAVGAPERRNILMVGDGSFQLTAQEVAQMVRLKLPVIIFLINNYGYTIEVMIHDGPYNNIKNWDYAGLMEVFNGNGGYDSGAGKGLKAKTGGELAEAIKVALANTDGPTLIECFIGREDCTEELVKWGKRVAAANSRKPVNKLL
B7: PdcSs: Enzyme candidate for BDO biosynthetic pathway step A5, SEQ ID NO. 41 (protein, listed as Staphylococcus saprophyticus)
chain: MKKRVGQYLMDCISDVGVDKVFGVPGDFNLTFLDDIISRDDMEWIGNTNELNASYAADGYARMKGIAAMVTTFGVGELSAVNGIAGSYAERVPVIQITGAPTRAVESAGKYVHHSLGEGNFDDYRNMYASITTAQAYITPENAQSEIPRVINAALYEKRPVHIHLPIDVANSEIDVATPFEIEQRPQTDVTKYMTMVKDKLQSADKPVIITGHEINSFKLHEKLEQFVKQSQIPVVQLSLGKGAFNETSPYYMGIYDASLAEEDIRNYVDQSDAILNIGAKLTDSATAGYSYQFDIDDVVMINHHHFKMNETKDTEVSLVDLLDGLNAINYVNNAEFPKFKQPKAHDYDLTDEPLTQETYFKMMQDFIREEDVILAEQGTSFFGAYDLALKHNNKFIGQPLWGSIGYTLPATLGTQMADTSRRNLLLIGDGSLQLTVQEISTMIREKIKPIIFVINNDGYTVERKIHGENAMYNDIKMWDYKLLPTVFGGKDEVQVHDVNTSEAFQKVLLQIEAQPDTMHFIEVKMGVHDAPHKLNAIGQAFAKQNG

What follows are molecules tested on 5-hydroxy-L-norvaline (assay: Enzyme assay, aminotransferase (step A4), cell lysates). Conditions: BDO biosynthetic pathway step A4.
Type: biochemical
Design: key: +: measureable activity detected in the assay; −: no measurable activity detected in the assay
Description: (§1) Enzyme expression and crude lysate preparation. The enzymatic activity of each candidate enzyme is evaluated, first in E. coli and subsequently in C. glutamicum. It will be apparent to one of skill in the art that the expression and lysate preparations may need to be modified depending on the host cell and recombinant gene of interest.
(§2) E. coli: E. coli strains transformed with expression clones, for example, pUC18 or MB4124 based clones having a medium strong constitutive promoter regulating the recombinant gene of interest, are grown aerobically in LB medium (Difco) containing the appropriate antibiotic(s). At an OD600 of 0.5, IPTG is added to a final concentration of 0.25 mM. The cultures are grown to a final OD600 of 1.5 at which time the cells are collected and harvested by centrifugation. Cell pellets are resuspended in BugBuster (Novagen) reagent containing benzonase and lysozyme. Alternatively, E. coli strains transformed with expression clones, are grown overnight aerobically at 37° C. in BHI containing the appropriate antibiotic(s). 300 μL of fresh overnight culture is used to inoculate 2.7 mL BHI containing 0.25 mM IPTG and the appropriate antibiotic. The cultures are grown aerobically for 4-5 hours at 37° C. at which time the cells are collected and harvested by centrifugation. Cell pellets are frozen at −80° C. for at least 15 minutes, then thawed and resuspended in BugBuster (Novagen) reagent. Lysis and lysate collection are performed according to the manufacturer's instructions and, for example, may involve use of a sonicator and/or French press. Cleared lysates are stored on ice until enzyme assays are performed.
C. glutamicum: C. glutamicum strains transformed with MB4124 expression clones containing the recombinant gene of interest are grown aerobically in BHI broth supplemented with the proper antibiotic(s). At an OD600 of 0.5, IPTG is added to a final concentration of 0.25 mM. The cultures are grown to a final OD600 of 1.5 at which time the cells are collected and harvested by centrifugation. The pellet is washed once in one volume of water and resuspended in lysis buffer (1.0 ml 1.0 M HEPES buffer, pH 7.5, 0.5 ml 1M KOH, 10 μl 0.5M EDTA, protease inhibitor cocktail, water to 5 ml; the final pH will vary depending on the individual enzyme being tested) and one volume of 0.1 mm acid washed glass beads. The mixture is repeatedly alternately vortexed and held on ice for 15 seconds, eight times. After centrifugation for 5 min at 4,000 rpm, the supernatant lysate is removed and respun for 20 min at 10,000 rpm. Alternatively, C. glutamicum strains transformed with MB4124 expression clones containing the recombinant gene of interest are grown aerobically overnight in BHI broth supplemented with the proper antibiotic(s). Five mL of fresh overnight culture is used to inoculate 200 mL BHI containing 0.25 mM IPTG and the appropriate antibiotic. The cultures are grown aerobically at 30° C. for 5-7 hours at which time the cells are collected and harvested by centrifugation at 4° C. The pellet is resuspended in 15 mL ice cold 39 mM KH2PO4, 61 mM K2HPO4, 0.5 M KCl and lysed using a BioSpec BeadBeater and following the manufacturer's instructions. […]
Protein Assays. Protein concentrations in lysates are determined according to the methods of Bradford et al. (Anal. Biochem. 72:248-254 [1976]) or by the method of Smith et al. (Anal. Biochem. 150(1):76-85 [1985]) and lysates are assayed according to the methods below. […]

Molecule	Enzyme Assay
B1	−
B2	−
B3	−
B4	−

What follows are molecules tested on 5-hydroxy-2-oxopentanoate (assay: Enzyme assay, decarboxylase (step A5), aldehyde dehydrogenase linked reaction). Conditions: BDO biosynthetic pathway step A5.
Type: biochemical
Design: key: +: measureable activity detected in the assay; −: no measurable activity detected in the assay
Description: as §1, §2
C. glutamicum: C. glutamicum strains transformed with MB4124 expression clones containing the recombinant gene of interest are grown aerobically in BHI broth supplemented with the proper antibiotic(s). At an OD600 of 0.5, IPTG is added to a final concentration of 0.25 mM. The cultures are grown to a final OD600 of 1.5 at which time the cells are collected and harvested by centrifugation. The pellet is washed once in one volume of water and resuspended in lysis buffer (1.0 ml 1.0 M HEPES buffer, pH 7.5, 0.5 ml 1M KOH, 10 μl 0.5M EDTA, protease inhibitor cocktail, water to 5 ml; the final pH will vary depending on the individual enzyme being tested) and one volume of 0.1 mm acid washed glass beads. The mixture is repeatedly alternately vortexed and held on ice for 15 seconds, eight times. After centrifugation for 5 min at 4,000 rpm, the supernatant lysate is removed and respun for 20 min at 10,000 rpm. Alternatively, C. glutamicum strains transformed with MB4124 expression clones containing the recombinant gene of interest are grown aerobically overnight in BHI broth supplemented with the proper antibiotic(s). Five mL of fresh overnight culture is used to inoculate 200 mL BHI containing 0.25 mM IPTG and the appropriate antibiotic. The cultures are grown aerobically at 30° C. for 5-7 hours at which time the cells are collected and harvested by centrifugation at 4° C. The pellet is resuspended in 15 mL ice cold 39 mM KH2PO4, 61 mM K2HPO4, 0.5 M KCl and lysed using a BioSpec BeadBeater and following the manufacturer's instructions. The lysate is centrifuged at 16,000 RPM at 4° C. for 30 minutes and the supernatant retained on ice as the extract.
Protein Assays. Protein concentrations in lysates are determined according to the methods of Bradford et al. (Anal. Biochem. 72:248-254 [1976]) or by the method of Smith et al. (Anal. Biochem. 150(1):76-85 [1985]) and lysates are assayed according to the methods below.
Enzyme Assays. Enzyme assays are performed on the cell lysates prepared above. The activity for each recombinant enzyme is compared to a lysate from a vector only control culture which is generated in a fashion identical to the recombinant enzyme lysate. […]

Molecule	Enzyme Assay
B5	−
B6	−
B7	−

Each molecule was assayed on 5-hydroxy-2-oxopentanoate (assay: In vitro substrate conversion assay, step A5). Conditions: BDO biosynthetic pathway step A5.
Type: biochemical
Design: key: +: measureable activity detected in the assay; −: no measurable activity detected in the assay
Description: In Vitro Substrate Conversion. Most of the enzyme assays described above are based on recording changes in absorbance at a given wavelength. In addition to such spectrophotometric readouts, these assays can also be analyzed by more direct methods using an endpoint assay where the reaction is terminated after a given period of time and the mixture is analyzed via HPLC or LC-MS methods.
(§3) The aldehyde dehydrogenase linked reaction was used for step A5.

Molecule	In Vitro Substrate Conversion Assay
B5	−
B6	−
B7	−

Each molecule was assayed on 5-hydroxy-2-oxopentanoate (assay: Bioconversion (feeding) assay, step A5). Conditions: BDO biosynthetic pathway step A5.
Type: cell-based
Design: key: +: measureable activity detected in the assay; −: no measurable activity detected in the assay
Description: Bioconversion assays. The activity of a candidate enzyme towards a given substrate can also be evaluated in vivo using a simple feeding assay. A strain expressing the candidate enzyme is grown in the presence of the substrate for which activity is desired. Samples of the culture are removed periodically and the cells are removed via centrifugation. The culture supernatant is then analyzed (e.g., by LC-MS) to determine how much of the substrate has been removed and how much of a given product is present.
as §3

Molecule	Bioconversion Assay
B5	−
B6	−
B7	−
